Consider five substances from PMC4646180.

The target in the assay is Ub-AMC (ubiquitin with 7-amino-4-methylcoumarin at its C terminus) (UniProt P0CG48).
With “MHV PLP2+ D1772R (from UniProt P0C6V0 1525-1911) (enzyme)”, the Relative activity of WT, 500 nM Ub-AMC is 1.1%.
As for “MHV PLP2+ D1807R (from UniProt P0C6V0 1525-1911) (enzyme)”, the figure is 0.5%; as for “MHV PLP2+ F1812A (from UniProt P0C6V0 1525-1911) (enzyme)”, 3.3%.
Turning to “MHV PLP2+ Y1824A (from UniProt P0C6V0 1525-1911) (enzyme)”, the Relative activity of WT, 500 nM Ub-AMC was determined as 3%.
To “MHV PLP2+ Y1824F (from UniProt P0C6V0 1525-1911) (enzyme)” belongs 70.3%.
